From paper PMC9126943, “ADAMTS4-specific MR probe to assess aortic aneurysms in vivo using synthetic peptide libraries” (Nature Communications, 2022)
“Also recorded” adds a separate entry of the source. Where a SMILES comes first, the peptide text is derived from it. Bridges are numbered along the chain shown (N, C = ends). The star is where a group is joined. Cy5(nonsulfonated) = CN1C(=CC=CC=CC2=[N+](CCCCCC(=O)*)c3ccccc3C2(C)C)C(C)(C)c2ccccc21; DOTA = O=C(O)CN1CCN(CC(=O)O)CCN(CC(=O)*)CCN(CC(=O)O)CC1

Columns and labels:
[1] = Metabolic stability in human plasma by HPLC; assay type: in vitro ADME; details: lyophilized human plasma 1 g in 10 ml water, 0.2 µm filtered; 8 mg probe in 2 ml plasma; 37 °C, 700 rpm; 5 min to 24 h; HPLC C18, absorbance 220 nm, blank subtracted
Protocol: 1 g of lyophilized human plasma was dissolved in 10 ml ultrapure water and mixed for 12 h at 4 °C. Afterward, the plasma was filtered with a pore size of 0.2 µm, and the filtrate was mixed for 1 h at 37 °C. 2 ml of plasma was mixed with 8 mg of the ADAMTS4-specific probe, while 2 ml plasma was kept blank. Both samples were shaken at 37 °C at 700 rpm. After different time points (5 min, 30 min, 45 min, 1 h, 2 h, […], 18 h, and 24 h) respectively, 200 µl of both samples were removed and 200 µl guanidium HCl (6 M, pH 3) was added to each sample and mixed for 30 min at RT. Afterward, 1 ml EtOH was added, and the samples were shaken at 4 °C for 48 h. The samples were centrifuged at 4 °C, 22640 x g for 15 min, and 1 ml of the supernatant was taken. The solvent was removed with the Speedvac (Martin Christ RVC 2-18 CDplus) at 37 °C. 250 µl ultrapure water + 0.2% TFA were added into each sample and shaken overnight. The samples were centrifuged at 4 °C, 22640 x g for 15 min, and 200 µl were transferred into MS vials. The samples were measured with an AdvanceBio Peptide Map column (C18; Core-shell; length 15 cm; ID 2.1 mm) on a 1260 Infinity Bioinert Quaternary LC System (Agilent Technologies). The following conditions were used: 2 µl injections volume, flowrate 0.4 ml/min, 0–30 min 99% A to 85% A (A: ultrapure water with 0.2% TFA; B ACN with 0.16% TFA). […]

ADAMTS5 = biological target: T1, ADAMTS5 (Homo sapiens, UniProt Q9UNA0); experiment: MST instrument, ligand-dependent fluorescence change, Cy5-labeled peptide vs ADAMTS5; assay type: binding; details: Cy5-labeled peptide 3 nM, ADAMTS5 starting concentration 2.46 µM, n = 3
T1 construct: His; purchased BioTeZ Berlin-Buch GmbH 30 400 502
T1 sequence (Q9UNA0 262-930): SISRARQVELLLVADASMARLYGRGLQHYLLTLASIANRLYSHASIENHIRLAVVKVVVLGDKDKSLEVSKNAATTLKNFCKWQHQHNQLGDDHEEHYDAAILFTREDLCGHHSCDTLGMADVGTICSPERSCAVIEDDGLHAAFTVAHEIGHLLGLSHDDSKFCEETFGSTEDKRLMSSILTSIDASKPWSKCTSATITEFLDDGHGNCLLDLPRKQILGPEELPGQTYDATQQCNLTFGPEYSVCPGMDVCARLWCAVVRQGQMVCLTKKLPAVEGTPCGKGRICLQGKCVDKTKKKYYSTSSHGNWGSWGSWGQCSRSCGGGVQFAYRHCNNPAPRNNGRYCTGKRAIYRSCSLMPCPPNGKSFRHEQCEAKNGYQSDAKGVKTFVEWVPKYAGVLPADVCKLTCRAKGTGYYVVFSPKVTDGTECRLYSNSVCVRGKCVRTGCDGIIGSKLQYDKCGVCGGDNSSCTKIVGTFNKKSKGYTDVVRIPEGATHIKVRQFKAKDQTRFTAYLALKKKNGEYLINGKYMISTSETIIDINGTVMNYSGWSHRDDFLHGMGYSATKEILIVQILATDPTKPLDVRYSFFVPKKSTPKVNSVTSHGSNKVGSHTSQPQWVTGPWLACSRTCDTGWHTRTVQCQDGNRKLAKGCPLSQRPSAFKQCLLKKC
Protocol: Microscale thermophoresis (MST) was performed on a Monolith Pico (NanoTemper, Munich, Germany). The Cy5-labeled peptides were diluted into the MST buffer (150 mM NaCl, 50 mM TRIS-HCl, 5 mM CaCl2, and Tween-20) to reach a dilution of 6 nM. ADAMTS4, ADAMTS5, and ADAMTS1 were directly used with the supplied concentration. For ADAMTS4, the starting concentration was 4.96 µM, while for ADAMTS1 it was 4.88 µM and for ADAMTS5 it was 2.46 µM. Since we saw a loss of binding after centrifugation, the use of protein concentrators were inappropriate. 20 µl of the protein solutions were transferred into a PCR tube. 10 µl of this first vial was transferred into a second vial and mixed by pipetting with 10 µl of the MST buffer. […] The capillaries were transferred into the Monolith tray and measured with 10% excitation power on the pico-red excitation on high MST power at 25 °C. […] We detected a ligand-dependent fluorescence change for some of the systems. We checked for ADAMTS4 and the ADAMTS4-specific-Cy5-labeled probe via a saturation test for specifying the ligand-dependent fluorescence change. […] The samples were heated at 95 °C for 5 min and measured in the MST. The fluorescence difference between the concentrations was afterward at the same level. Each measurement was repeated three times independently and the binding constant was calculated by merging all three measurements. […]

SMILES	degradation in human plasma within 24 h [1]	binding to ADAMTS5, in words (ADAMTS5)
N=C(N)NCCC[C@@H]1NC(=O)[C@H](CCCNC(=N)N)NC(=O)[C@H](CO)NC(=O)[C@@H](N)CSSC[C@@H](C(=O)N[C@@H](CO)C(=O)NCC(=O)NCC(=O)N[C@@H](CO)C(=O)NCC(=O)NCC(=O)N[C@@H](CCCCNC(=O)CN2CCN(CC(=O)O)CCN(CC(=O)O)CCN(CC(=O)O)CC2)C(=O)NCC(N)=O)NC(=O)CNC1=O (Gd complex, metal not drawn) [ADAMTS4-specific probe] (H-CSRRGCSGGSGGK(DOTA)G-NH2; disulfide 1-6)	No relevant degradation; also recorded: No relevant biodegradation	–
C[N+]1=C(C=CC=CC=C2N(CCCCCC(=O)NCCCC[C@H](NC(=O)CNC(=O)CNC(=O)[C@H](CO)NC(=O)CNC(=O)CNC(=O)[C@H](CO)NC(=O)[C@@H]3CSSC[C@H](N)C(=O)N[C@@H](CO)C(=O)N[C@@H](CCCNC(=N)N)C(=O)N[C@@H](CCCNC(=N)N)C(=O)NCC(=O)N3)C(=O)NCC(N)=O)c3ccccc3C2(C)C)C(C)(C)c2ccccc21 [Cy5-labeled probe] (H-CSRRGCSGGSGGK(Cy5(nonsulfonated))G-NH2; disulfide 1-6; N-terminus and C-terminus assumed)	–	determination of the binding constant is not possible; also recorded: plateau was not reached; also recorded: a ligand dependent fluorescence change occurs
